Data: patent US20140087995A1 (published 2014)
Numbered stars: 1 amine (or outer) side, 2 acyl side, 3 side chain; on linkers, the order of the positions; unused ones are H or OH. Bridge positions count the residues as written; N and C are the ends. Side chains are listed from the residue outwards. Ends that are not written are not given here. * marks the point of attachment. C20 diacid = O=C(O)CCCCCCCCCCCCCCCCCCC(=O)*; γGlu = O=C(O)[C@H](CCC(=O)[*:2])N[*:1]; AEEA = NCCOCCOCC(=O)O

T1: human calcitonin receptor (human, UniProt P30988 25-474)
T1 construct: whole, on cells; Used as cell membranes prepared from the transfected BHK cells (Assay VII), not as intact cells; also called hCTR; hCT
T1 sequence (looked up): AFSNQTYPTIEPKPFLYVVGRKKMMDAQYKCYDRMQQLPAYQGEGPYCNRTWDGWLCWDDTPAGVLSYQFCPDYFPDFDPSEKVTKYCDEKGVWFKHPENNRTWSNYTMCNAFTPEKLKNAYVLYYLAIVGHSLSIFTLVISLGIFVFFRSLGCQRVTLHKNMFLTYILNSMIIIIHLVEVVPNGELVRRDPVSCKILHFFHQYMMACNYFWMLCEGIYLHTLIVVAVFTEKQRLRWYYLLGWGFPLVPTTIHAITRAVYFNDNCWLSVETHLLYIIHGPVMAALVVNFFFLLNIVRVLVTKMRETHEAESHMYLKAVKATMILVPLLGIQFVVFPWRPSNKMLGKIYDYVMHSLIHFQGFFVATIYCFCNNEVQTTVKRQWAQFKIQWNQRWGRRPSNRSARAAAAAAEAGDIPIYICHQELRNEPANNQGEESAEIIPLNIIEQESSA


target: T1, human calcitonin receptor; experiment: SPA competition against 125I-calcitonin, membranes with human calcitonin receptor (Assay VII)
Protocol: Membranes were prepared in the following way; the cells were rinsed with PBS and incubated with Versene for approximately 5 min before harvesting. The cells were flushed with PBS and the cell-suspension was centrifuged for 5 min at 1000 rpm. Cells were homogenized (Ultrathurrax) in a buffer containing 20 mM Na-HEPES and 10 mM EDTA (pH 7.4) and centrifuged at 20.000 rpm for 15 min. The resulting pellet was resuspended, homogenized and centrifuged (20.000 rpm, 15 min) in a buffer containing 20 mM Na-HEPES and 0.1 mM EDTA (pH 7.4, buffer 2). The resulting pellet was resuspended in buffer 2 and protein concentration was measured (BCA protein Assay, Pierce). The homogenate was kept cold during the whole procedure. The membranes were kept at −80° C. until use. Assay was performed in a 384 well Optiplate (PerkinElmer) in a total volume of 40 ul. Membranes were mixed with SPA beads. Final concentration of membranes 35 ng/μL final and Final concentration of SPA beads was 0.05 mg/well. Test-compounds were dissolved in DMSO and further diluted in assay buffer (50 mM Hepes, pH 7.4, 1 mM CaCl2, 5 mM MgCl₂, 0.1% OA and 0.02% Tween20). […] The final mixture was incubated for 120 min with shaking at 400 rpm at 25° C. prior to centrifugation (1500 rpm, 10 min). Samples were analyzed on TopCounter™ (Packard). The […] was calculated using (one site binding competition analysis) GraphPad Prism5 as a measure of receptor affinity.

Row | Binder | IC50
1 | {C20 diacid-γGlu}-KCNTATCATQRLAHFLRHSSPNFGAIPSSTNVGSETY-NH2 (disulfide 2-7; SMILES CC[C@H](C)[C@H](NC(=O)[C@H](C)NC(=O)CNC(=O)[C@H](Cc1ccccc1)NC(=O)[C@H](CC(N)=O)NC(=O)[C@@H]1CCCN1C(=O)[C@H](CO)NC(=O)[C@H](CO)NC(=O)[C@H](Cc1c[nH]cn1)NC(=O)[C@H](CCCNC(=N)N)NC(=O)[C@H](CC(C)C)NC(=O)[C@H](Cc1ccccc1)NC(=O)[C@H](Cc1c[nH]cn1)NC(=O)[C@H](C)NC(=O)[C@H](CC(C)C)NC(=O)[C@H](CCCNC(=N)N)NC(=O)[C@H](CCC(N)=O)NC(=O)[C@@H](NC(=O)[C@H](C)NC(=O)[C@@H]1CSSC[C@H](NC(=O)[C@H](CCCCN)NC(=O)CC[C@H](NC(=O)CCCCCCCCCCCCCCCCCCC(=O)O)C(=O)O)C(=O)N[C@@H](CC(N)=O)C(=O)N[C@@H]([C@@H](C)O)C(=O)N[C@@H](C)C(=O)N[C@@H]([C@@H](C)O)C(=O)N1)[C@@H](C)O)C(=O)N1CCC[C@H]1C(=O)N[C@@H](CO)C(=O)N[C@@H](CO)C(=O)N[C@H](C(=O)N[C@@H](CC(N)=O)C(=O)N[C@H](C(=O)NCC(=O)N[C@@H](CO)C(=O)N[C@@H](CCC(=O)O)C(=O)N[C@H](C(=O)N[C@@H](Cc1ccc(O)cc1)C(N)=O)[C@@H](C)O)C(C)C)[C@@H](C)O, also called compound 30) | 21.6 nM
2 | K([γGlu-C20 diacid])CNTATCATQRLANFLRHSSPNFGAIPSSTNVGSKTY-NH2 (disulfide 2-7; N-terminus assumed; SMILES CC[C@H](C)[C@H](NC(=O)[C@H](C)NC(=O)CNC(=O)[C@H](Cc1ccccc1)NC(=O)[C@H](CC(N)=O)NC(=O)[C@@H]1CCCN1C(=O)[C@H](CO)NC(=O)[C@H](CO)NC(=O)[C@H](Cc1c[nH]cn1)NC(=O)[C@H](CCCNC(=N)N)NC(=O)[C@H](CC(C)C)NC(=O)[C@H](Cc1ccccc1)NC(=O)[C@H](CC(N)=O)NC(=O)[C@H](C)NC(=O)[C@H](CC(C)C)NC(=O)[C@H](CCCNC(=N)N)NC(=O)[C@H](CCC(N)=O)NC(=O)[C@@H](NC(=O)[C@H](C)NC(=O)[C@@H]1CSSC[C@H](NC(=O)[C@@H](N)CCCCNC(=O)CC[C@H](NC(=O)CCCCCCCCCCCCCCCCCCC(=O)O)C(=O)O)C(=O)N[C@@H](CC(N)=O)C(=O)N[C@@H]([C@@H](C)O)C(=O)N[C@@H](C)C(=O)N[C@@H]([C@@H](C)O)C(=O)N1)[C@@H](C)O)C(=O)N1CCC[C@H]1C(=O)N[C@@H](CO)C(=O)N[C@@H](CO)C(=O)N[C@H](C(=O)N[C@@H](CC(N)=O)C(=O)N[C@H](C(=O)NCC(=O)N[C@@H](CO)C(=O)N[C@@H](CCCCN)C(=O)N[C@H](C(=O)N[C@@H](Cc1ccc(O)cc1)C(N)=O)[C@@H](C)O)C(C)C)[C@@H](C)O, also called compound 35) [N^ε1-[(4S)-4-carboxy-4-(19-carboxynonadecanoylamino)butanoyl]-[Arg17,Pro21,Pro27,Lys35]-h-amylin] | 48.8 nM
3 | K([AEEA-γGlu-C20 diacid])CNTATCATQRLANFLRHSSPNFGAIPSSTNVGSETY-NH2 (disulfide 2-7; N-terminus assumed; SMILES CC[C@H](C)[C@H](NC(=O)[C@H](C)NC(=O)CNC(=O)[C@H](Cc1ccccc1)NC(=O)[C@H](CC(N)=O)NC(=O)[C@@H]1CCCN1C(=O)[C@H](CO)NC(=O)[C@H](CO)NC(=O)[C@H](Cc1c[nH]cn1)NC(=O)[C@H](CCCNC(=N)N)NC(=O)[C@H](CC(C)C)NC(=O)[C@H](Cc1ccccc1)NC(=O)[C@H](CC(N)=O)NC(=O)[C@H](C)NC(=O)[C@H](CC(C)C)NC(=O)[C@H](CCCNC(=N)N)NC(=O)[C@H](CCC(N)=O)NC(=O)[C@@H](NC(=O)[C@H](C)NC(=O)[C@@H]1CSSC[C@H](NC(=O)[C@@H](N)CCCCNC(=O)COCCOCCNC(=O)CC[C@H](NC(=O)CCCCCCCCCCCCCCCCCCC(=O)O)C(=O)O)C(=O)N[C@@H](CC(N)=O)C(=O)N[C@@H]([C@@H](C)O)C(=O)N[C@@H](C)C(=O)N[C@@H]([C@@H](C)O)C(=O)N1)[C@@H](C)O)C(=O)N1CCC[C@H]1C(=O)N[C@@H](CO)C(=O)N[C@@H](CO)C(=O)N[C@H](C(=O)N[C@@H](CC(N)=O)C(=O)N[C@H](C(=O)NCC(=O)N[C@@H](CO)C(=O)N[C@@H](CCC(=O)O)C(=O)N[C@H](C(=O)N[C@@H](Cc1ccc(O)cc1)C(N)=O)[C@@H](C)O)C(C)C)[C@@H](C)O, also called compound 26) | 25.3 nM
4 | K([γGlu-C20 diacid])CNTATCATQRLANFLRHSSPNFGAIPSSTNVGSETY-NH2 (disulfide 2-7; N-terminus assumed; SMILES CC[C@H](C)[C@H](NC(=O)[C@H](C)NC(=O)CNC(=O)[C@H](Cc1ccccc1)NC(=O)[C@H](CC(N)=O)NC(=O)[C@@H]1CCCN1C(=O)[C@H](CO)NC(=O)[C@H](CO)NC(=O)[C@H](Cc1c[nH]cn1)NC(=O)[C@H](CCCNC(=N)N)NC(=O)[C@H](CC(C)C)NC(=O)[C@H](Cc1ccccc1)NC(=O)[C@H](CC(N)=O)NC(=O)[C@H](C)NC(=O)[C@H](CC(C)C)NC(=O)[C@H](CCCNC(=N)N)NC(=O)[C@H](CCC(N)=O)NC(=O)[C@@H](NC(=O)[C@H](C)NC(=O)[C@@H]1CSSC[C@H](NC(=O)[C@@H](N)CCCCNC(=O)CC[C@H](NC(=O)CCCCCCCCCCCCCCCCCCC(=O)O)C(=O)O)C(=O)N[C@@H](CC(N)=O)C(=O)N[C@@H]([C@@H](C)O)C(=O)N[C@@H](C)C(=O)N[C@@H]([C@@H](C)O)C(=O)N1)[C@@H](C)O)C(=O)N1CCC[C@H]1C(=O)N[C@@H](CO)C(=O)N[C@@H](CO)C(=O)N[C@H](C(=O)N[C@@H](CC(N)=O)C(=O)N[C@H](C(=O)NCC(=O)N[C@@H](CO)C(=O)N[C@@H](CCC(=O)O)C(=O)N[C@H](C(=O)N[C@@H](Cc1ccc(O)cc1)C(N)=O)[C@@H](C)O)C(C)C)[C@@H](C)O, also called compound 27) [N^ε1-[(4S)-4-carboxy-4-(19-carboxynonadecanoylamino)butanoyl]-[Arg17,Pro21,Pro27,Glu35]-h-amylin] | 34.5 nM
5 | K([AEEA-AEEA-γGlu-C20 diacid])CNTATCATQRLANFLRHSSPNFGAIPSSTNVGSETY-NH2 (disulfide 2-7; N-terminus assumed; SMILES CC[C@H](C)[C@H](NC(=O)[C@H](C)NC(=O)CNC(=O)[C@H](Cc1ccccc1)NC(=O)[C@H](CC(N)=O)NC(=O)[C@@H]1CCCN1C(=O)[C@H](CO)NC(=O)[C@H](CO)NC(=O)[C@H](Cc1c[nH]cn1)NC(=O)[C@H](CCCNC(=N)N)NC(=O)[C@H](CC(C)C)NC(=O)[C@H](Cc1ccccc1)NC(=O)[C@H](CC(N)=O)NC(=O)[C@H](C)NC(=O)[C@H](CC(C)C)NC(=O)[C@H](CCCNC(=N)N)NC(=O)[C@H](CCC(N)=O)NC(=O)[C@@H](NC(=O)[C@H](C)NC(=O)[C@@H]1CSSC[C@H](NC(=O)[C@@H](N)CCCCNC(=O)COCCOCCNC(=O)COCCOCCNC(=O)CC[C@H](NC(=O)CCCCCCCCCCCCCCCCCCC(=O)O)C(=O)O)C(=O)N[C@@H](CC(N)=O)C(=O)N[C@@H]([C@@H](C)O)C(=O)N[C@@H](C)C(=O)N[C@@H]([C@@H](C)O)C(=O)N1)[C@@H](C)O)C(=O)N1CCC[C@H]1C(=O)N[C@@H](CO)C(=O)N[C@@H](CO)C(=O)N[C@H](C(=O)N[C@@H](CC(N)=O)C(=O)N[C@H](C(=O)NCC(=O)N[C@@H](CO)C(=O)N[C@@H](CCC(=O)O)C(=O)N[C@H](C(=O)N[C@@H](Cc1ccc(O)cc1)C(N)=O)[C@@H](C)O)C(C)C)[C@@H](C)O, also called compound 25) | 43.4 nM
